US20210147534A1 (RECEPTA BIOPHARMA S A, published 2021)
No end group written: not given here.

Biological target: T1, recombinant mouse CD74 (mouse, UniProt P04441 56-279, limits assumed)
T1 construct: Bought (Abcam); also called recombinant CD74
T1 sequence (looked up): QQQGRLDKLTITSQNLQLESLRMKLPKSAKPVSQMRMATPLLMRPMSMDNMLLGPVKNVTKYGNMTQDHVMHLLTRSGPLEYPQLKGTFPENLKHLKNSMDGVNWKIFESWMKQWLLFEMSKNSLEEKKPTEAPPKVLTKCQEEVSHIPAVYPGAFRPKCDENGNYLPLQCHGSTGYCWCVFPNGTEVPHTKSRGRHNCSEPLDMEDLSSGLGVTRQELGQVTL
Experiment: chemiluminescent dot-blotting, peptide on nitrocellulose, recombinant CD74 in solution
Method: Membranes were washed and incubated with primary mouse anti-CD74 or anti-MIF (both from Abcam, Cambridge, UK), washed and incubated with secondary anti-mouse IgG-HRP. Immunoreactivity was determined using the ECL Western Blotting Substrate (Millipore, Billerica, Mass.), and signal was detected in a trans-illuminator Uvitec, Cambridge, UK).

B1: Rb10A1 (peptide)
peptide: AARGETARATFAYWGQG-NH2
notes: Linear peptide; N-terminal Cys of Rb10 replaced by alanine; also called A1C
  binding result: no binding
